Series [1] concerns the molecule itself. Put plainly: SEC; gel filtration chromatography; WT serially diluted from 2 mg/mL to 0.25 mg/mL; mutants compared with WT at matched concentrations by elution position. On the technique in general: In gel filtration, larger molecules generally elute earlier.
Series [2] deals with the molecule itself. Put plainly: SEC-MALS; MBP-tagged WD40 domain injected at 2 mg/mL; in-line size exclusion column, three-angle light scattering and refractive index detectors.

Numbering of substitutions follows the chain as printed. Names may count otherwise.

One may read the stoichiometry N as the number of molecules, sites or subunits per partner or assembly.

B1: LRRK2 WD40 domain mutant M2408E (domain or fragment, human, UniProt Q5S007 2142-2527, looked up)
chain: RRILLPKNVIVECMVATHHNSRNASIWLGCGHTDRGQLSFLDLNTEGYTSEEVADSRILCLALVHLPVEKESWIVSGTQSGTLLVINTEDGKKRHTLEKMTDSVTCLYCNSFSKQSKQKNFLLVGTADGKLAIFEDKTVKLKGAAPLKILNIGNVSTPLMCLSESTNSTERNVMWGGCGTKIFSFSNDFTIQKLIETRTSQLFSYAAFSDSNIITVVVDTALYIAKQNSPVVEVWDKKTEKLCGLIDCVHFLREVMVKENKESKHKESYSGRVKTLCLQKNTALWIGTGGGHILLLDLSTRRLIRVIYNFCNSVRVMMTAQLGSLKNVMLVLGYNRKNTEGTQKQKEIQSCLTVWDINLPHEVQNLEKHIEVRKELAEKMRRTSVE
notes: LRRK2, human, WD40 domain, residues 2142-2527, with M2408E; Probably MBP-tagged and from Sf9 as the WT; methods in the SI Appendix; source: purified proteins
On to B1, for which, in series [1], the binding result is given as “binds”.

B2: LRRK2 WD40 domain PD-associated variant Y2189C (domain or fragment, human, UniProt Q5S007 2142-2527, looked up)
chain: B1 chain with Y48C, E267M
notes: LRRK2, human, WD40 domain, residues 2142-2527, with the PD-associated variant Y2189C; Probably MBP-tagged and from Sf9 as the WT; methods in the SI Appendix; source: purified proteins
In the case of B2, in series [1], the binding result is on record as “binds”.

B3: MBP-tagged LRRK2 WD40 domain, wild type (domain or fragment, human, UniProt Q5S007 2142-2527, looked up)
chain: B1 chain with E267M
notes: leucine-rich repeat kinase 2 (LRRK2), human, WD40 domain, residues 2142-2527; MBP-tagged monomer calculated at about 83 kDa; The tag is named for the MALS runs; also called WT WD40 domain; source: Sf9 insect cells via baculovirus infection, purified to homogeneity
On to B3, for which the “stoichiometry N” value in series [2] worked out at 2.

The values above are taken from publication PMC6358694, “Crystal structure of the WD40 domain dimer of LRRK2” (Proceedings of the National Academy of Sciences of the …, 2019).
